pKd: −log10 of the molar value.

By pKd is commonly meant the negative decadic logarithm of the Kd, by convention in mol/L.

Holding throughout (test): filter
Data set [1] deals with Spike S2 ECD (SARS-CoV-2) (UniProt P0DTC2). As to conditions: Y=Tyr-dU, p=Nap-dC.
The next data set has as its target Spike S1 (SARS-CoV-2) (UniProt P0DTC2). Conditions: P=Nap-dU.
Another data set has as its target Spike RBD (SARS-CoV-2) (UniProt P0DTC2). As to conditions: P=Nap-dU.
For data set [2], the target named is Spike S1 & S2 ECD (SARS-CoV-2) (UniProt P0DTC2).
The mark [3] stands for this setting: printed GCATCGGAAPGAAPGPCPGCCPPGCACPGGPGCGGPCCGAPPGPGAGGGA [Nap-dU at 10,14,16,18,22,23,28,31,36,41,42,44].
Setting [4] is: Y=Tyr-dU, p=Nap-dC, SB18T0.01, 37 C.
The mark [5] stands for this setting: printed GCATCAPCPCCCAGCPAAPGAGPGPCPGAAPPGGACPGGPCCPCPGGGGA [7,9,16,19,23,25,27,31,32,37,40,43,45].

Regarding “CCTTGTGCAACGCACCTTATTCGGCTTGAATGTGAGAAGG [26876-13_4 (SL1115)]”, in data set [1] (printed CCTTGYGpAApGpAppYYAYYpGGpYYGAAYGYGAGAAGG [Nap-dC: 8,11,13,15,16,22,25, Tyr-dU: 6,17,18,20,21,26,27,31,33]), the pKd is 9.72.
As to “GCATCGGAATGAATGTCTGCCTTGCACTGGTGCGGTCCGATTGTGAGGGA [26860-16_3 (SL1108)]”, the pKd with Spike S1 (SARS-CoV-2) (setting [3]) was 9.32; in the data set with Spike RBD (SARS-CoV-2) (setting [3]), 10.21.
Consider “CCTTGCAGGCGGCACATGGCACTTCATATCGAGCGGAAGG [26876-3_4 (SL1114)]”, for which, in data set [1] (printed CCTTGpAGGpGGpApAYGGpApYYpAYAYpGAGpGGAAGG [Nap-dC: 6,10,13,15,20,22,25,30,34, Tyr-dU: 17,23,24,27,29]), the pKd was 9.43.
With “GGGANANNANGNGNNNGANNGNNNGGANG [26874-29_83]”, the pKd in data set [2] (PEdU at 14, other dU Tyr-dU, dC Nap-dC, SB18T0.01, 37 C) was 9.72.
In turn, “GGGANANNANGNGNNNGANNGNNNGGANG [26874-29_147]” showed a pKd in data set [2] (BPEdU at 5, other dU Tyr-dU, dC Nap-dC, assigned, low plateau) of 9.36.
On to “GGGANANNANGNGNNNGANNGNNNGGANG [OH-26874-29_331]”, for which, in data set [2] (Y=Tyr-dU, p=Nap-dC, position 28 DPP-dC, protein construct inferred), the pKd is 9.89.
In the case of “GGGANANNANGNGNNNGANNGNNNGGANG [26874-29_81]”, in data set [2] (PEdU at 10, other dU Tyr-dU, dC Nap-dC, SB18T0.01, 37 C), the pKd is 9.80.
Take “GGGANANNANGNGNNNGANNGNNNGGANG [26874-29_122]”: in data set [2] (BTdU at 14, other dU Tyr-dU, dC Nap-dC, SB18T0.01, 37 C), the pKd is 9.80.
In data set [2] (POPdU at 5, other dU Tyr-dU, dC Nap-dC, SB18T0.01, 37 C), “GGGANANNANGNGNNNGANNGNNNGGANG [26874-29_117]” had a pKd of 9.38.
For “GGGANANNANGNGNNNGANNGNNNGGANG [26874-29_87]”, the pKd in data set [2] (PPdU at 5, other dU Tyr-dU, dC Nap-dC, SB18T0.01, 37 C) was 9.60.
In data set [2] (NEdU at 5, other dU Tyr-dU, dC Nap-dC, SB18T0.01, 37 C), “GGGANANNANGNGNNNGANNGNNNGGANG [26874-29_76]” gave a pKd of 9.34.
“GGGANANNANGNGNNNGANNGNNNGGANG [26874-29_61]”: the pKd in data set [2] (BndU at 10, other dU Tyr-dU, dC Nap-dC, SB18T0.01, 37 C) was 9.51.
The sequence ANNANGNGNNNGANNGNNNGGANGG [26874-29_23] had a negative logarithm of the Kd (pKd) in data set [2] (setting [4]) of 8.80.
As for “GGGANANNANGNGNNNGANNGNNNGGANG [26874-29_119]”, in data set [2] (Y=Tyr-dU, p=Nap-dC, position 8 POP-dU, value curated as assigned, Kd/Kd_20 1656), the pKd was 6.30.
“GGGANANNANGNGNNNGANNGNNNGGANG [26874-29_88]” showed a pKd in data set [2] (BFdU at 8, other dU Tyr-dU, dC Nap-dC, SB18T0.01, 37 C) of 9.72.
With “GGGANANNANGNGNNNGANNGNNNGGANG [26874-29_59]”, the pKd in data set [2] (BndU at 8, other dU Tyr-dU, dC Nap-dC, SB18T0.01, 37 C) was 9.74.
In data set [2] (PBndU at 5, other dU Tyr-dU, dC Nap-dC, SB18T0.01, 37 C), “GGGANANNANGNGNNNGANNGNNNGGANG [26874-29_66]” had a pKd of 9.72.
“GGGANANNANGNGNNNGANNGNNNGGANG [26874-29_101]”: in data set [2] (ThrdU at 10, other dU Tyr-dU, dC Nap-dC, SB18T0.01, 37 C), the pKd was 9.44.
“GGGANANNANGNGNNNGANNGNNNGGANG [26874-29_121]” had a pKd in data set [2] (POPdU at 10, other dU Tyr-dU, dC Nap-dC, low plateau) of 9.38.
As to “GCATCATCTCCCAGCTAATGAGTGTCTGAATTGGACTGGTCCTCTGGGGA [26860-75_3 (SL1107)]”, the pKd was 8.55 with Spike S1 (SARS-CoV-2) (setting [5]) and 9.64 with Spike RBD (SARS-CoV-2) (setting [5]).
Regarding “GGGANANNANGNGNNNGANNGNNNGGANG [26874-29_49]”, the pKd in data set [2] (NapdU at 8, other dU Tyr-dU, dC Nap-dC, SB18T0.01, 37 C) is 9.40.
“GGGANANNANGNGNNNGANNGNNNGGANG [26874-29_50]” gave a pKd in data set [2] (FBndU at 10, other dU Tyr-dU, dC Nap-dC, SB18T0.01, 37 C) of 9.51.
In data set [2] (TrpdU at 5, other dU Tyr-dU, dC Nap-dC, SB18T0.01, 37 C), “GGGANANNANGNGNNNGANNGNNNGGANG [26874-29_56]” had a pKd of 9.27.
In turn, “GGGANANNANGNGNNNGANNGNNNGGANG [26874-29_78]” gave a pKd in data set [2] (NEdU at 8, other dU Tyr-dU, dC Nap-dC, SB18T0.01, 37 C) of 9.62.
In data set [2] (NEdU at 10, other dU Tyr-dU, dC Nap-dC, SB18T0.01, 37 C), “GGGANANNANGNGNNNGANNGNNNGGANG [26874-29_80]” showed a pKd of 9.80.
Take “GGGANANNANGNGNNNGANNGNNNGGANG [26874-29_48]”: the pKd in data set [2] (FBndU at 8, other dU Tyr-dU, dC Nap-dC, SB18T0.01, 37 C) is 9.59.
Take “GGGANANNANGNGNNNGANNGNNNGGANG [26874-29_54]”: in data set [2] (FBndU at 23, other dU Tyr-dU, dC Nap-dC, SB18T0.01, 37 C), the pKd was 9.68.
In turn, “GGGANANNANGNGNNNGANNGNNNGGANG [OH-26874-29_181]” gave a pKd in data set [2] (2Nap-dC at 7, other dC Nap-dC, dU Tyr-dU) of 9.70.
Turning to “GGGANANNANGNGNNNGANNGNNNGGANG [26874-29_123]”, the pKd in data set [2] (Y=Tyr-dU, p=Nap-dC, position 14 POP-dU, value curated as assigned, Kd/Kd_20 1656) is 6.30.
On to “GGGANANNANGNGNNNGANNGNNNGGANG [26874-29_112]”, for which the pKd in data set [2] (MOEdU at 14, other dU Tyr-dU, dC Nap-dC, SB18T0.01, 37 C) is 9.25.
In data set [2] (Y=Tyr-dU, p=Nap-dC, position 23 2NE-dU, very low plateau, faint spots), “GGGANANNANGNGNNNGANNGNNNGGANG [26874-29_134]” gave a pKd of 9.92.
In data set [2] (NapdU at 23, other dU Tyr-dU, dC Nap-dC, SB18T0.01, 37 C), “GGGANANNANGNGNNNGANNGNNNGGANG [26874-29_55]” had a pKd of 9.60.
For the sequence “GGGANANNANGNGNNNGANNGNNNGGANG [26874-29_113]”, the pKd in data set [2] (2NapdU at 14, other dU Tyr-dU, dC Nap-dC, SB18T0.01, 37 C) was 9.49.
In turn, “GGGANANNANGNGNNNGANNGNNNGGANG [26874-29_57]” showed a negative-log Kd (pKd) in data set [2] (BndU at 5, other dU Tyr-dU, dC Nap-dC, SB18T0.01, 37 C) of 9.68.
Turning to “GGGANANNANGNGNNNGANNGNNNGGANG [26874-29_106]”, the pKd in data set [2] (MOEdU at 5, other dU Tyr-dU, dC Nap-dC, SB18T0.01, 37 C) was 9.18.
Consider “GGGANANNANGNGNNNGANNGNNNGGANG [26874-29_79]”, for which the pKd in data set [2] (PEdU at 8, other dU Tyr-dU, dC Nap-dC, SB18T0.01, 37 C) was 9.77.
As to “GGGANANNANGNGNNNGANNGNNNGGANG [26874-29_89]”, the pKd in data set [2] (PPdU at 8, other dU Tyr-dU, dC Nap-dC, SB18T0.01, 37 C) was 9.70.
On to “GGGANANNANGNGNNNGANNGNNNGGANG [OH-26874-29_328]”, for which the pKd in data set [2] (Y=Tyr-dU, p=Nap-dC, position 20 DPP-dC) was 10.42.
“GGGANANNANGNGNNNGANNGNNNGGANG [26874-29_95]”: the pKd in data set [2] (PPdU at 23, other dU Tyr-dU, dC Nap-dC, SB18T0.01, 37 C) is 9.38.
Regarding “GGGANANNANGNGNNNGANNGNNNGGANG [26874-29_60]”, the pKd in data set [2] (Y=Tyr-dU, p=Nap-dC, position 10 Trp-dU, Kd/Kd_20 0.24) is 10.01.
In data set [2] (NapdU at 14, other dU Tyr-dU, dC Nap-dC, SB18T0.01, 37 C), “GGGANANNANGNGNNNGANNGNNNGGANG [26874-29_53]” had a pKd of 9.70.
Sequence “GGGANANNANGNGNNNGANNGNNNGGANG [26874-29_52]” gave a pKd in data set [2] (Y=Tyr-dU, p=Nap-dC, position 14 FBn-dU, Kd/Kd_20 0.27) of 9.96.
In turn, “GGGANANHANGNGNNNGANNGNNNGGANG [26874-29_98]” showed a pKd in data set [2] (ThdU at 8, other dU Tyr-dU, dC Nap-dC, SB18T0.01, 37 C) of 9.66.
In data set [2] (setting [4]), NANNANGNGNNNGANNGNNNGGANG [26874-29_24] showed a pKd of 8.68.
In turn, “GGGANANNANGNGNNNGANNGNNNGGANG [26874-29_72]” showed a pKd in data set [2] (Y=Tyr-dU, p=Nap-dC, position 14 PBn-dU, Kd/Kd_20 0.33) of 9.85.
“GGGANANNANGNGNNNGANNGNNNGGANG [26874-29_99]”: the pKd in data set [2] (ThrdU at 8, other dU Tyr-dU, dC Nap-dC, SB18T0.01, 37 C) was 9.62.
In data set [2] (TrpdU at 8, other dU Tyr-dU, dC Nap-dC, SB18T0.01, 37 C), “GGGANANNANGNGNNNGANNGNNNGGANG [26874-29_58]” had a pKd of 9.57.
The sequence “GGGANANNANGNGNNNGANNGNNNGGANG [26874-29_114]” gave a pKd in data set [2] (MOEdU at 23, other dU Tyr-dU, dC Nap-dC, SB18T0.01, 37 C) of 9.09.
In data set [2] (ThdU at 23, other dU Tyr-dU, dC Nap-dC, SB18T0.01, 37 C), “GGGANANNANGNGNNNGANNGNHNGGANG [26874-29_104]” gave a pKd of 9.23.
Regarding “GGGANANNANGNGNNNGANNGNNNGGANG [26874-29_90]”, the pKd in data set [2] (Y=Tyr-dU, p=Nap-dC, position 10 BF-dU, Kd/Kd_20 0.33) is 9.85.
As for “GGGANANNANGNGNNNGANNGNNNGGANG [26874-29_124]”, the pKd in data set [2] (BTdU at 23, other dU Tyr-dU, dC Nap-dC, SB18T0.01, 37 C) is 9.19.
Turning to “GGGANANNANGNGNNNGANNGNNNGGANG [26874-29_70]”, in data set [2] (PBndU at 10 (printed sequence lacks Y at 10, F^ in place), other dU Tyr-dU, dC Nap-dC, SB18T0.01, 37 C), the pKd was 9.70.
On to “GGGANANNANGNGNRNGANNGNNNGGANG [OH-26874-29_192]”, for which the pKd in data set [2] (Y=Tyr-dU, p=Nap-dC, position 15 PP-dC, protein construct inferred) was 6.00.

The values are drawn from US20240218374.
